# Source: patent publication US20210147573A1 (DENALI THERAPEUTICS, published 2021)
# T1: HA-Rab8a phosphorylated at T72 (overexpressed with LRRK2 in HEK293T cells, DMSO-treated lysate) (UniProt P61006 1-204, phosphothreonine at Thr72 (numbered with reference to SEQ ID NO:124))
# T1 construct: mature; In cell lysate of HEK293T co-transfected with FLAG-LRRK2 or FLAG-LRRK2-R1441C; also called pT72-Rab8a; phospho-Rab8a; not shown: N-terminal HA (hemagglutinin) tag
# T1 sequence (looked up): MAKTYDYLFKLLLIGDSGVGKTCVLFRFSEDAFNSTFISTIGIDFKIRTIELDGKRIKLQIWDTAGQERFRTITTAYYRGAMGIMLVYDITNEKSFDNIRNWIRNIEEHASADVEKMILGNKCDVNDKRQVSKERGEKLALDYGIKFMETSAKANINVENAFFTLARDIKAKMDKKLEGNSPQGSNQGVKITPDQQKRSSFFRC
# T2: HA-Rab8a (N-terminal HA-tagged full-length Rab8a overexpressed in HEK293T cells); not phosphorylated / LRRK2 … (UniProt P61006 1-204)
# T2 construct: mature; also called overexpressed Rab8a protein; not shown: N-terminal HA (hemagglutinin) tag
# T2 sequence (looked up): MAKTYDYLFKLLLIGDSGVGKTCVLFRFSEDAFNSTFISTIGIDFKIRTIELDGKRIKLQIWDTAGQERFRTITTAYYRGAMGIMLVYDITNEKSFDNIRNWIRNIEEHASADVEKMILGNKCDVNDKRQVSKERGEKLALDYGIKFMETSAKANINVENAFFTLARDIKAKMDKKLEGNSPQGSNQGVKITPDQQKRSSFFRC
# T3: recombinant Rab10 protein (Abnova, H00010890-P01) (UniProt P61026 1-200)
# T3 construct: Bought
# T3 sequence (looked up): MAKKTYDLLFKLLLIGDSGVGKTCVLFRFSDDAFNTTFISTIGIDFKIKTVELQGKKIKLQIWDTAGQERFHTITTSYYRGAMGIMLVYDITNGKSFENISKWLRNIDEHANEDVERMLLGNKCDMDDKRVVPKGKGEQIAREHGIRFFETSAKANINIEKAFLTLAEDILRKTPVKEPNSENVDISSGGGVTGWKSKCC
# T4: HA-Rab10 (N-terminal HA-tagged Rab10 overexpressed in HEK293T cells); not phosphorylated / LRRK2 inhibitor … (UniProt P61026 1-200)
# T4 construct: mature; also called overexpressed Rab10 protein; not shown: N-terminal HA (hemagglutinin) tag
# T4 sequence (looked up): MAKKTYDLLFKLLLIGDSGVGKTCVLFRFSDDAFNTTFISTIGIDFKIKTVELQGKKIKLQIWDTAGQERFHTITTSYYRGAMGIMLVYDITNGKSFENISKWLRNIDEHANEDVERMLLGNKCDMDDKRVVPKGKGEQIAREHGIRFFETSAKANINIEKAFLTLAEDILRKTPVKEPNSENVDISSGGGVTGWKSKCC
# T5: endogenously expressed human Rab10 protein (total Rab10, A549 cell lysates) (human, UniProt P61026 1-200)
# T5 construct: A549 is stated to be a human lung epithelial cell line
# T5 sequence: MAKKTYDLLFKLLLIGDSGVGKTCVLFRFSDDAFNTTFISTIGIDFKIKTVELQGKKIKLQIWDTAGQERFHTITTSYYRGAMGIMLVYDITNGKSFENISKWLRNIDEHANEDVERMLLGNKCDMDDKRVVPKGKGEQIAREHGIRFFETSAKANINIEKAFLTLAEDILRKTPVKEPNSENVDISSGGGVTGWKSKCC
# Key:
# [1] = target: HA-Rab10 (N-terminal HA-tagged Rab10 overexpressed in HEK293T cells; not phosphorylated / LRRK2 inhibitor A-treated lysate) (UniProt P61026)
# [2] = target: mouse Rab10 (endogenous, brain and kidney) (UniProt P61027)
# [3] = target: mouse Rab10 (endogenous, brain and kidney) (mouse) (UniProt P61027); assay: cell-based or functional assay
# [4] = target: endogenous phosphorylated human Rab8a protein (pT72-Rab8a) (human) (UniProt P61006); assay: western blot, human PBMC; band intensity normalized to actin; mean ± SEM
# [5] = target: T1, HA-Rab8a phosphorylated at T72 …
# [6] = target: T2, HA-Rab8a (N-terminal HA-tagged …)
# Procedure: (§1) 96-well ELISA plates were coated with 10 μg/ml anti-rabbit IgG (Millipore) overnight at 4° C. Plates were washed with TBST (Tris Buffered Saline with Tween 20), and blocked with 2% BSA. Hybridoma supernatants were added in different dilutions, and incubated at room temperature for 2 hours. After TBST wash, cell lysates were then added at different protein concentration (0.08 mg/ml or 0.8 mg/ml). […] HRP conjugated anti-HA antibody (1:5000, CST #2999) was used for detection. TMB substrate was added and developed. Absorbance (OD) was measured at 650 nm using a plate reader.
# [7] = target: T1, HA-Rab8a phosphorylated at T72 …; assay: sandwich ELISA screening assay; OD ratio of DMSO lysate to LRRK2 inhibitor A lysate
# Procedure: as §1
# [8] = target: T3, recombinant Rab10 protein (Abnova, …); assay: sandwich ELISA with recombinant Rab proteins; same screening and selection strategy used for subclone supernatants
# Procedure: (§2) Plates were then washed 3× with TBST on a BioTek plate washer. […] Plates were blocked for 1 hour at room temperature using 100 uL/well and washed 3× as before. Afterwards samples were added using 30 uL/well and incubated 1 hour at room temperature on a shaking platform. For ELISA with recombinant Rab proteins, the samples were recombinant Rab10 protein (Abnova, H00010890-P01) or Rab8a protein (Abnova, H00004218-Q01). For ELISA with cell lysates with overexpressed Rab10 protein, lysates were from HEK293T cells overexpressing HA-Rab10, and lysates from HEK293T cells overexpressing HA-Rab8a were used as negative controls. For ELISA with cell lysates with endogenously-expressed Rab10 protein, lysates were from A549 cells (wild-type), and lysates from Rab10 KO A549 cells were used as negative controls. After another 3× wash, bleeds/antisera or hybridoma supernatants were added as detection antibody with different dilutions at 30 ul/well, and were incubated at room temperature for 1 hour. […] After 1 hour incubation, plates were washed 3× as before. […] 50 uL/well of substrate was added to plates, which then were covered and briefly incubated for 1-2 minutes on a shaker platform. Afterwards plates were read on the Synergy plate reader to measure relative light units (RLU).
# [9] = target: T4, HA-Rab10 (N-terminal HA-tagged Rab10 …); assay: sandwich ELISA with cell lysates; same screening and selection strategy used for subclone supernatants
# Procedure: as §2
# [10] = target: T5, endogenously expressed human Rab10 …; assay: sandwich ELISA with lysates of wild-type A549 cells, Rab10 KO A549 lysates as negative controls
molecule,measurement,setting,value
LRRK2 variant R1441G,"phosphorylation of Rab10 (pT73-Rab10 western blot signal normalized to total Rab10, against wild-type LRRK2)",[1],demonstrated significantly increased phosphorylation levels of Rab10
LRRK2 variant G2019S (HEK293T expression),"phosphorylation of Rab10 (pT73-Rab10 western blot signal normalized to total Rab10, against wild-type LRRK2)",[1],demonstrated significantly increased phosphorylation levels of Rab10
LRRK2 variant G2385R,"phosphorylation of Rab10 (pT73-Rab10 western blot signal normalized to total Rab10, against wild-type LRRK2)",[1],demonstrated significantly increased phosphorylation levels of Rab10
"mouse LRRK2 (endogenous; absent in LRRK2 knockout mice, Jackson Lab #016121)","reduction of pRab10 level in LRRK2 KO mouse kidney (western blot, normalized to actin)",[2],more than 90% reduction of pRab10 level
same,"reduction of pT73-Rab10 level in LRRK2 KO mouse brain (western blot, normalized to actin)",[2],30-40% reduction for pT73-Rab10 level
LRRK2 variant Y1699C,"phosphorylation of Rab10 (pT73-Rab10 western blot signal normalized to total Rab10, against wild-type LRRK2)",[1],demonstrated significantly increased phosphorylation levels of Rab10
LRRK2 variant I2020T,"phosphorylation of Rab10 (pT73-Rab10 western blot signal normalized to total Rab10, against wild-type LRRK2)",[1],demonstrated significantly increased phosphorylation levels of Rab10
"G2019S-LRRK2 (BAC transgene in G2019S-Tg mice, Jackson Laboratories #018785)","increase in pT73-Rab10 level in brain and kidney of G2019S transgenic mice (western blot, normalized to actin)",[3],20 to 30%
"anti-pT72-Rab8a monoclonal antibody clone 20 (antibody, V domains shown, Rabbit monoclonal; also called anti-phospho Rab8a clone 20; anti-phosphorylated T72-Rab8a monoclonal antibody (clone 20)) VH: QSVEESGGRLVTPGTPLTLTCTVSGFSLSSYAMGWVRQAPGEGLEYFGIINTGGSAYYTNWAKGRFTISRTSTTVHLKITSPTTEDTATYFCARIAGDTRYYGMDPWGPGTLVTVSS VL: AAVLTQTPSPVSAAVGGTVSISCQSSKSVRNNNYLAWYQQKPGQPPKLLIYGASTLASGVPSRFKGSGSGTQFTLTISDVQCDDAATYYCAGGYDGGSDDAFGGGTEVVVK",Ratio of DMSO/LRRK2 inhibitor A,[4],3.5
same,OD A650 (DMSO),[5],0.827 OD A650
same,OD A650 (LRRK2 inhibitor A),[6],0.099 OD A650
same,Ratio (DMSO/LRRK2 inhibitor A),[7],8.35
"anti-pT72-Rab8a monoclonal antibody clone 24-3 (antibody, V domains shown, Rabbit monoclonal; also called anti-phospho Rab8a clone 24-3) VH: QSVEESGGRLVTPGTPLTLTCTVSGFSLSSYYITWVRQAPGKGREWLGIMNAGTTVHYANWVKGRFAISKTSTTVDLKITSPTTEDTATYFCARARNSVWMDIWGPGTLVTVSL VL: AAVLTQTPSPVSGAVGGSVTVNCQSDKSVYRDNLAWYQQKPGQPPKLLIYKASTLASGVPSRFRGSGAGTQFTLTISDVQCDDAATYFCAGGYSSDSDTAFGGGTEVVVK",OD A650 (LRRK2 inhibitor A),[6],0.286 OD A650
same,Ratio (DMSO/LRRK2 inhibitor A),[7],5.19
"anti-pT72-Rab8a monoclonal antibody clone 170-1 (antibody, V domains shown, Rabbit monoclonal; also called anti-phospho Rab8a clone 170-1) VH: QSLEESGGDLVKPEGSPTLTCTASGFSFSSSYWICWVRQAPGKGLEWIACIYGGSSGTIYYASWAKGRFTISKTSSTTVTLQMTSLTAADTATYFCARRAAGGYGGRLDLWGQGTLVTVSS VL: AQVMTQTPASVSAAVGGTVTINCQSSESVLNNNYLAWYQQKSGQPPKLLIWTASSLASGVPSRFSGSGSGTQFTLTISDVQCDDAATYYCAGGYYIGSDIFAFGGGTEVVVR",OD A650 (LRRK2 inhibitor A),[6],0.173 OD A650
same,Ratio (DMSO/LRRK2 inhibitor A),[7],6.03
"anti-total Rab10 monoclonal antibody Clone 10-3 (antibody, V domains shown, Rabbit monoclonal from rabbit E8473 (Peptide A immunization); hybridoma supernatant; also called anti-total Rab10 clone 10-3) VH: QSVEESGGRLVTPGTPLTLTCTASGFSLSSYYMNWVRQAPGKGLEWIGFISSGGRTYYANWAKGRFTISKTSTTVDLKITSPTTEDMATYFCARAIYSSGNSAMAIWGPGTLVTVSL VL: AQVLTQTPSSVSAAVGGTVTISCQASQSVYDNSNLAWYQQKPGQPPELLIYYTSTLASGVPSRFSGSGSGTQFTLTISGVQCDDAAIYYCLGAFTCSSGDCNVFGGGTEVVVK",binding result,[8],binds
same,binding result,[9],binds
same,binding result,[10],binds
